This experiment concerns the target E117K mutant of rabbit muscle pyruvate kinase (rabbit). The experiment in a line: crystal structure; E117K mutant at 7 mg/mL in 50 mM Tris pH 7.0 with 1.0 mM ATP, 1.0 mM MgCl2, 0.2 mM oxalate; hanging drop; 0.2 M magnesium acetate, 0.1 M sodium cacodylate pH 6.5, 18% w/v PEG 8000; space group P212121, four copies in the asymmetric unit.

“E117K mutant of rabbit muscle pyruvate kinase (enzyme)” yielded a stoichiometry N of 4.

Broadly, the stoichiometry N is the number of molecules, sites or subunits per partner or assembly.

For the origin of these results see paper PMC8835810.
